# Paper PMC9038631 (Journal of neuroendocrinology, 2022)
# T1: aromatase (rat (endogenous in hypothalamus and …, UniProt P22443 1-508))
# T1 sequence (looked up): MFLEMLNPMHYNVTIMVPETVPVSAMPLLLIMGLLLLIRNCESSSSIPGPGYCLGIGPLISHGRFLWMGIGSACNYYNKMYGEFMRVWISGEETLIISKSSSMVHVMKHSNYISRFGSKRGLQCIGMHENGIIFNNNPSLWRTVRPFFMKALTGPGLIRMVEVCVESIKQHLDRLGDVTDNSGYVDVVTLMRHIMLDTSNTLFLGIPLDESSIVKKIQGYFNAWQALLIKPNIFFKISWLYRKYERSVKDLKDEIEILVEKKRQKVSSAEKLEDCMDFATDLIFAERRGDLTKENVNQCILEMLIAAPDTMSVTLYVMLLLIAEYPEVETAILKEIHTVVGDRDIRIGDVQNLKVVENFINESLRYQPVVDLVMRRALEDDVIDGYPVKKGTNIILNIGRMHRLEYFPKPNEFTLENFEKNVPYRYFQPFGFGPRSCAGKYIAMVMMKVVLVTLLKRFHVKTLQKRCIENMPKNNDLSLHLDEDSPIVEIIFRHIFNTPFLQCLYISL
# B1: protein phosphatase 5 (PP5) (enzyme, UniProt P53042 1-499, looked up)
# chain: MAMAEGERTECAEPPRDEPPAEGTLKRAEELKTQANDYFKAKDYENAIKFYSQAIELNPSNAIYYGNRSLAYLRTECYGYALGDATRAIELDKKYIKGYYRRAASNMALGKFRAALRDYETVVKVKPNDKDAKMKYQECSKIVKQKAFERAIAGDEHRRSVVDSLDIESMTIEDEYSGPKLEDGKVTITFMKDLMQWYKDQKKLHRKCAYQILVQVKEVLCKLSTLVETTLKETEKITVCGDTHGQFYDLLNIFELNGLPSETNPYIFNGDFVDRGSFSVEVILTLFGFKLLYPDHFHLLRGNHETDNMNQIYGFEGEVKAKYTAQMYELFSEVFEWLPLAQCINGKVLIMHGGLFSEDGVTLDDIRKIERNRQPPDSGPMCDLLWSDPQPQNGRSVSKRGVSCQFGPDVTKAFLEENQLDYIIRSHEVKAEGYEVAHGGRCVTVFSAPNYCDQMGNKASYIHLQGSDLRPQFHQFTAVPHPNVKPMAYANTLLQLGMM
# Target: T1, aromatase
# Test: co-IP
binder,measurement,value
B1,fold more co-IPed with hypothalamic than with spinal aromatase,5.4 fold
